Test results taken from the DeepSol protein solubility set.

assay: soluble on expression in E. coli; label from the status in PepcDB or PDB records

Sequence	soluble on expression in E. coli
MTVDLTNVFQQIDGDYDNLKELLREAVAIQSVSGDPSKRDETIRMVHWMKEKLETIGTICELADLGTQELEGKTVKLPPVLLGTLGSDKNKKTLLVYGHLDVQPAAKSDGWDTEPFELVEKDGKLFGRGSSDDKGPVLCWFHAIRAAQKNGIDLPVNIKFCLEGMEESGSVGLPELLEREKDRFLAGVDFVCISDSYWLGTKKPCLTYGLRGICSFFVEVTGIKQDLHSGVFGGVIHEPLQDLMWVMSQLTTVDNRIKIPGLYEQVAPLSAAEEKTYDDIEFDVAEFRDSVGASKLPTEDKKTLLLRRWREPSLAFHGIEGAFYGPGEKTVIPSKVIGKFSIRIVPDMDPEQVNRLTVEYLNKVWAERGSPNVFKPRPGHSAKPWVVDVNDSNFLAGARAMKRVHGVEPDRIREGCSIPITLTFQELTGKSVLLLPIGAADDMAHSQNEKNNIWNYVEGVKTLLAYIMELGSA	not soluble
MTVDSSMSSGYCSLDEELEDCFFTAKTTFFRNAQSKHLSKNVCKPVEETQRPPTLQEIKQKIDSYNTREKNCLGMKLSEDGTYTGFIKVHLKLRRPVTVPAGIRPQSIYDAIKEVNLAATTDKRTSFYLPLDAIKQLHISSTTTVSEVIQGLLKKFMVVDNPQKFALFKRIHKDGQVLFQKLSIADRPLYLRLLAGPDTEVLSFVLKENETGEVEWDAFSIPELQNFLTILEKEEQDKIQQVQKKYDKFRQKLEEALRESQGKPG	not soluble
MTVEQNVLQQSAAQKHQQTFLNQLREITGINDAQILQQALKDSNGNLELAVAFLTAKNAKTPPQEET	soluble
MTVLEAVLEIQAITGSRLLSMVPGPARPPGSCWDPTQCTRTWLLSHTPRRRWISGLPRASCRLGEEPPPLPYCDQAYGEELSIRHRETWAWLSRTDTAWPGAPGVKQARILGELLLV	not soluble
MTVLLSKRAINILLMLLDLEGSITTQELAESFTVSVRTIKYDLEDIRAWFEQHDETLYSKRNKGIWLDLPDSKRLLLKNEIIDVDRFETYPDQKRRVNVLIFQLLSVKGYLTAQQLADELLVSRNTIVSDLEQVERLLQAYDLTLIRQARQGFTISGEESNVRLLMEFITQKELTEYDIYQIMNYVTKTKGAEKIPKIKFGSGTLFQGCYRSALKKMRNLINPLDQNQFDYAEILSITLRVAIAAARMQMAHTIGTYRVLSQKTRFEQRNEVPLLLLQEVFERYDLPLLADEYFYIYSDLFGTHQRQDMVQLTKQVIESVSKELNYPFVNDRQLFTNLFAHLSLRFTKKHLFINEYNPFSEEIKGKHPALFLAIQSACKQLIQRSVLLVNDSFCAYIALHFLAAQERQQQEAKVVRIVYVCSTGLGVTSLIEQKILEEVPNVELAGFASVLNATEVIQAEKPDLVLSIFPIEEMTYPFIKVSPLLTDTDLSLIREEVDKILLGKRQGKGTARSTKSDVIEKNERIQSQDLLVKAYIIYEELKRMFQTKLLSEYQEAFLLHVLLMTHRITFNKQYEEIPCNREVSHERQEEIRQIECLFAKNELPVNHAEISALLNYLEQPKEEEDGTSNGSTGDHSTKC	not soluble
MTVPTYDKFIEPVLRYLATKPEGAAARDVHEAAADALGLDDSQRAKVITSGQLVYKNRAGWAHDRLKRAGLSQSLSRGKWCLTPAGFDWVASHPQPMTEQETNHLAFAFVNVKLKSRPDAVDLDPKADSPDHEELAKSSPDDRLDQALKELRDAVADEVLENLLQVSPSRFEVIVLDVLHRLGYGGHRDDLQRVGGTGDGGIDGVISLDKLGLEKVYVQAKRWQNTVGRPELQAFYGALAGQKAKRGVFITTSGFTSQARDFAQSVEGMVLVDGERLVHLMIENEVGVSSRLLKVPKLDMDYFE	soluble
MTVPYETAKAALLEAAMMHVPFDGWSETTFQAAARDAELSPSVARAICPRGAVDLAIAFHKAGDAAMLDRLAETDLSAMKFRDKVTAAVRIRLEVIEDKEAVRRGTTLFALPMYAADGAKLIWGTCDAIWTTLGDTSDDVNWYTKRATLSGVYSSTVLYWLGDDSPDHMATWGFLDRRIENVMAIEQVKAKVRQSPTLSRLMTGPNWLLSQIKAPRITPKTDLEHHHHHH	soluble
MTVTAPNALNFECETGNYHTFCPISCVAWLYQKIEDSFFLVIGTKTCGYFLQNAMGVMIFAEPRYAMAELEEGDISAQLNDYEELKRLCLEIKRDRNPSVIVWIGTCTTEIIKMDLEGLAPKLEAEIGIPIVVARANGLDYAFTQGEDTVLAAMAARCPTSTAISDPEERNPIQRLLNFGKKKEEVQAQSSQYHPHPPLVLFGSLPDPVVTQLTLELKKQGIKVSGWLPAKRYTELPVIDEGYYVAGVNPFLSRTATTLIRRRKCQLITAPFPIGPDGTRTWIEQICATFGIQPQGLAEREAETWQKLSDYLELVRGKSVFFMGDNLLEISLARFLIRCGMRVLEIGIPYMDKRYQAAELALLSQTCAEMGHPLPTIVEKPDNYNQLQRIKALQPDLVITGMAHANPLEARGISTKWSVEFTFAQIHGFGNARDILELVTRPLRRNQALAGLGWQKLVAH	soluble
MTVVKEELKEALEMLKNTGVRITPQRHAILEYLVESMTHPTADDIYKALEGKFPNMSVATVYNNLRVFKEVGLVKELTYGDASSRFDYVTSQHYHVICEKCGKIVDFPYGGLEKLEEEAAKTTGFVINSHRLEIYGVCPECHKA	not soluble
MTWPAFSLGVWGYPERMDPRVPPGQFVTERFPILTYGETPKVAKEAWRLEVTGLVETPLVLTYEDLLARPQVELTRDFHCVTRWSRLDVTWKGVRTRDLLEEARPRPEAVAALVESYGGYTTNLLLEDLLREDVLLAHTLFGKPLPPERGGPVRLLVPHLYAWKSAKWVRRIVLLDHLELGFWERLGYHWRGDPWKEERFQEGPVPAHRIRFAARNKPGR	soluble
MTYFVVEVTDQEIRREKDKARELRRSRWWQTVISRRTCHWCGGDFPPEELTMDHVVPIVRGGKSSRGNVVPACKECNNRKKYLLPLEWEEYLEKARNGGEQLEHHHHHH	soluble
MTYIAPEESAFGVGFFERLEANAKPMSLTRGPDAWDVLESIKRNVSNILNTRIGGAQSAPHLGLVDFNDATLETLDLSVRIKLAIQQCLERYEPRLTRVLVRADQDSFNPLTLRFHITATINSEALHEKVQFSLLLDQSRKYRVF	not soluble
MTYMVSILLVSPRPGHDVATAERNDVLRATGLAPEQLEQVLIDDVEKHLPDFSRFDGIIVGGSPLNISNETYSDWQKHVHTELSRIVYSAIPSFFICYGNSFLVDLTGGTVGRTHPEDSGATIVSLTADGLTDRITRDLPTTFTSLTGHTENAICLGDSTVLLATGDTCPIQMIRANETTWACQFHAEMDAQAMKTRMDFYKDYGYFSPEDYDAIVSSLPSIDTTYSNRVLRNFIEVCEGKR	not soluble
MVADVNLKTGEVGTRIAEINSNSDKRYVQRIIDEPKFSLMANLALSDADKSSTVVHFKASVRKGEKNLTNCIRDGLQEHFGKKIVSLAGQFIIQTGKARLHVMPDFPGCPFENNAEVDKWLNYFEMSAPLICATVMHSYDPGHNLRLEHTHCYSDHGDAGHYHYDVTPETVSYEGWFAPASKIYRIDEIKNR	not soluble
MVAGGFGVGKTTLIGSVSEVRPLRMEEPITQASAGVDDLRGTPHKTTTTVAMDFGRIHMAGGRLALYLFGLPGQSRFQPLWEDLAEGALGCLVLADTRDLDASHDALGLLDGAGIPYAVAINTFPGSPSYPEAELREALALEPATPLTYCDARDRTSSLHALITLTEYLSEHRSAALLESRRLEHHHHHH	not soluble
MVAKGRIIRVTGPLVVADGMKGAKMYEVVRVGELGLIGEIIRLEGDKAVIQVYEETAGVRPGEPVVGTGASLSVELGPGLLTSIYDGIQRPLEVIREKTGDFIARGVTAPALPRDKKWHFIPKAKVGDKVVGGDIIGEVPETSIIVHKIMVPPGIEGEIVEIAEEGDYTIEEVIAKVKTPSGEIKELKMYQRWPVRVKRPYKEKLPPEVPLITGQRVIDTFFPQAKGGTAAIPGPFGSGKTVTQHQLAKWSDAQVVIYIGCGERGNEMTDVLEEFPKLKDPKTGKPLMERTVLIANTSNMPVAAREASIYTGITIAEYFRDMGYDVALMADSTSRWAEALREISGRLEEMPGEEGYPAYLASKLAEFYERAGRVVTLGSDYRVGSVSVIGAVSPPGGDFSEPVVQNTLRVVKVFWALDADLARRRHFPAINWLTSYSLYVDAVKDWWHKNIDPEWKAMRDKAMALLQKESELQEIVRIVGPDALPERERAILLVARMLREDYLQQDAFDEVDTYCPPEKQVTMMRVLLNFYDKTMEAINRGVPLEEIAKLPVREEIGRMKFERDVSKIRSLIDKTNEQFEELFKKYGA	soluble
